Assay results published in US20100092974A1, “METHODS FOR SCREENING FOR MODULATORS OF CCRL2” (The Board of Trustees of the Leland Stanford Junior …, priority 2008, published 2010).

Tests used:
huCCRL2 = target: T1, huCCRL2 (Homo sapiens, UniProt O00421); assay: immunofluorescence-based chemerin-binding assay, huCCRL2-HA L1.2; conditions: read-out: EC50, untagged chemerin vs His8-tagged chemerin binding; 10 nM His8-tagged serum form chemerin, 30 min on ice, anti-His6 PE
T1 construct: The coding regions of mCCRL2, huCCRL2, mCRTH2, and huCCR10 were amplified from genomic DNA; expressed in transfected cells
T1 sequence (O00421 1-344): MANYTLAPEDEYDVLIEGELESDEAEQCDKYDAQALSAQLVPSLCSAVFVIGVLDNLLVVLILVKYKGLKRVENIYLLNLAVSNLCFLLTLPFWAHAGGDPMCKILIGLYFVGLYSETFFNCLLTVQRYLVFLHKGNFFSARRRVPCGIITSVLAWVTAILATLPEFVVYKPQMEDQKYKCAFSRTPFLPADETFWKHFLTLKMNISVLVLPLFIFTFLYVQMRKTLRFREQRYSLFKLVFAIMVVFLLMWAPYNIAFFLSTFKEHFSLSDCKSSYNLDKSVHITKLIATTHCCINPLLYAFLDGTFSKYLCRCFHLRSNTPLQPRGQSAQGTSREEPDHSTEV

mCMKLR1 [1] = target: T2, mCMKLR1 (Mus musculus, UniProt P97468); assay: immunofluorescence-based chemerin-binding assay, mCMKLR1-HA L1.2; conditions: 10 nM His8-tagged chemerin, anti-His6 PE
T2 construct: expressed in transfected cells; host or cells: L1.2 mouse pre-B lymphoma cells
T2 sequence (P97468 1-371): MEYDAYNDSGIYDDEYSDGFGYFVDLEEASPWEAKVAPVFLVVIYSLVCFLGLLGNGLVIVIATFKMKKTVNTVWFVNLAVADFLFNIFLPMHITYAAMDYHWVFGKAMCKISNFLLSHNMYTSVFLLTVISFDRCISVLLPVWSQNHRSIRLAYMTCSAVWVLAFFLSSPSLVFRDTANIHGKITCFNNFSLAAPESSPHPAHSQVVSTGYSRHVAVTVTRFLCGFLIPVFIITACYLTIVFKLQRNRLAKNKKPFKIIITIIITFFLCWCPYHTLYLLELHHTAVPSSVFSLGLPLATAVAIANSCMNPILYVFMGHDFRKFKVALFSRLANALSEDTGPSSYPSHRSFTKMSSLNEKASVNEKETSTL

mCCRL2 [2] = target: T3, mCCRL2 (Mus musculus, UniProt O35457); assay: intracellular calcium mobilization, mCCRL2/L1.2 transfectants; assay type: cell-based; conditions: Fluo-4; CXCL12 acts via endogenous CXCR4
T3 construct: The coding regions of mCCRL2, huCCRL2, mCRTH2, and huCCR10 were amplified from genomic DNA; expressed in transfected cells
T3 sequence (O35457 1-360): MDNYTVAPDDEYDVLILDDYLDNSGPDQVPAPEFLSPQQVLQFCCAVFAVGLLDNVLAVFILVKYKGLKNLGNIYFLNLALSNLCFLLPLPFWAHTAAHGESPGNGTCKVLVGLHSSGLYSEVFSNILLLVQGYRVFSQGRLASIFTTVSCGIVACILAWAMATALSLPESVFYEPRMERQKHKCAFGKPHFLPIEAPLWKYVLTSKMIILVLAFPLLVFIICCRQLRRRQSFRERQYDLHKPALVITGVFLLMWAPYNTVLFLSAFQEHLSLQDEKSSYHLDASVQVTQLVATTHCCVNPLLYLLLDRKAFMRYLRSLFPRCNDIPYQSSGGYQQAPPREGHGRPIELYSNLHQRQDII
Procedure: Chemoattractant-stimulated Ca^2+-mobilization was performed following Alliance for Cell Signaling protocol ID PP00000210. Cells (3×10^6/mL) were loaded with 4 μM Fluo4-AM and 0.16% Pluronic acid F-127 (Molecular Probes) in modified Iscove's medium (Iscove's medium with 1% heat inactivated bovine calf serum and 2 mM L-glutamine, Invitrogen) for 30 minutes at 37° C. The samples were mixed every 10 minutes during loading, washed once, resuspended at up to 2×10^6/mL in the same buffer, and allowed to rest in the dark for 30 minutes at room temperature. Chemoattractant-stimulated change in Ca^2+-sensitive fluorescence of Fluo-4 was measured over real-time with a FACsScan flow cytometer and CellQuest software (BD Biosciences) at room temperature under constant stirring (500 rpm). Fluorescent data were acquired continuously up to 1024 seconds at 1-second intervals. The samples were analyzed for 45 seconds to establish basal state, removed from the nozzle to add the stimuli, and then returned to the nozzle. Mean channel fluorescence over time was analyzed with FlowJo (TreeStar, Ashland, Oreg., USA) software. […] 500 μl of these chemerin-loaded cells were added to mCMKLR1/L1.2 cells loaded with Fluo4-AM, and calcium mobilization was evaluated.

mCCRL2 [3] = target: T3, mCCRL2; assay: in vitro transwell chemotaxis, mCCRL2/L1.2 transfectants; assay type: cell-based
Procedure: (§1) For migration experiments using cell lines, 2.5×10^5 cells/100 μl chemotaxis media (RPMI+10% fetal calf serum) were added to the top wells of 5-um pore transwell inserts (Costar, Corning, N.Y., USA), and test samples in 600 μl media were added to the bottom wells. After incubating the transwell plates for 1.5 hours at 37° C., the bottom wells were harvested and flow cytometry was used to assess migration. For primary cell chemotaxis, 1×10^6 cells/100 μl were added to the top well, and, following a 2 hour incubation at 37° C., polystyrene beads (15.0 μm diameter, Polysciences, Warrington, Pa., USA) were added to each well to facilitate normalization of the cell count. The cells were then stained for c-kit, F4/80, and/or CD11b expression and analyzed by flow cytometry. A ratio was generated and percent input migration was calculated.

mCMKLR1 [4] = target: T2, mCMKLR1; assay: in vitro transwell chemotaxis, mCMKLR1-HA/L1.2 cells; assay type: cell-based; conditions: range of doses
Procedure: as §1

mCMKLR1 [5] = target: T2, mCMKLR1; assay: receptor internalization assay, mCMKLR1-HA L1.2; assay type: cell-based; conditions: 100 nM chemerin
Procedure: The cells were then washed with 200 μl PBS and stained with mouse anti-HA (Covance, Inc) or mIgG1 isotype control, followed by staining with secondary anti-mouse IgG1 PE, fixed, and analyzed by flow cytometry.

mCCRL2 [6] = target: T3, mCCRL2; assay: chemerin internalization assay, mCCRL2-HA/L1.2 cells; assay type: cell-based; conditions: 10 nM His8-tagged serum form chemerin
Procedure: The primary cells were also stained with F4/80 and c-kit mAbs. Secondary anti-His6 PE was added to the cells and incubated for 30 minutes on ice. […] The cells were incubated for 5 minutes on ice with either PBS or acid wash buffer (0.2 M acetic acid, 0.5 M NaCl), and then analyzed by flow cytometry. Mast cells were identified by gating on SSC^high F4/80^− c-kit^+ cells.

chemerin: protein ligand for signaling receptor CMKLR1; serum form human chemerin expressed in baculovirus-infected insect cells, His8-tag removed
EC50 (huCCRL2): 7 nM | chemerin binding (mCMKLR1 [1]): unable to detect | intracellular calcium mobilization (mCCRL2 [2]): failed to trigger | synergy of CCL2 and chemerin in transwell migration (mCCRL2 [3]; CCL2 with chemerin): did not synergize | transwell migration (mCCRL2 [3]; range of doses, CXCL12 and CCL19 act via endogenous CXCR4 and CCR7): neither human nor mouse CCRL2-HA/L1.2 transfectants migrated | transwell migration (mCMKLR1 [4]): robust, dose dependent migratory response | time to ligand-induced receptor internalization (mCMKLR1 [5]): ≤ 15 min | acid resistant cell-associated chemerin (mCCRL2 [6]; 5 min at 37° C.): essentially no | acid resistant cell-associated chemerin (mCCRL2 [6]; 60 min at 37° C.): very little
